US20260242478A1 (published 2026)
Where no end group is shown, it is not given here.

Columns and labels:
[1] = target: T1, PSMA Fab; test: clonal phage ELISA on biotinylated PSMA Fab captured on neutravidin plates, anti-M13-HRP detection, no PSMA antigen
T1 construct: Biotinylated and captured on neutravidin plates in the phage ELISA; also called anti-PSMA Fab; 006 PSMA Fab
Experimental: (§1) Clonal phage were harvested as crude supernatants and screened via standard ELISAs. […] Prior to the addition of clonal phage. wells were incubated with blocking buffer and PSMA antigen or blocking buffer alone. Without washing or aspirating, clonal phage supernatants were then added to the wells and incubated for a short time. Wells were then washed followed by detection of bound phage using a horse radish conjugated anti-M13 antibody.

[2] = target: T1, PSMA Fab; test: clonal phage ELISA on captured PSMA Fab, wells pre-incubated with PSMA antigen as competitor, anti-M13-HRP detection;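 note: crude clonal phage supernatants added without washing after the PSMA preincubation, comparison wells received blocking buffer alone without PSMA, bound phage read after washing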
Experimental: as §1

[3] = target: T2, Anti-PSMA Fab; test: phage ELISA; PSMA Fab on plate pre-incubated with PSMA antigen (competitor), anti-M13-HRP detection
T2 construct: Biotinylated and captured on neutravidin coated plates in the panning ELISA; also called 006 PSMA Fab
Experimental: as §1

[4] = target: T2, Anti-PSMA Fab; test: phage ELISA; biotinylated PSMA Fab on neutravidin plate, clonal phage supernatant, anti-M13-HRP detection;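 note: wells were preincubated with blocking buffer containing PSMA antigen or with blocking buffer only, then phage supernatant was added without washing for a brief incubation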
Experimental: as §1

[5] = target: T3, 006 PSMA Fab; test: phage ELISA; biotinylated PSMA Fab on neutravidin plate, blocking buffer alone, anti-M13-HRP detection
T3 construct: also called Anti-PSMA Fab
Experimental: as §1

[6] = target: T3, 006 PSMA Fab; test: phage ELISA; biotinylated PSMA Fab on neutravidin plate, wells pre-incubated with PSMA antigen as competitor, anti-M13-HRP detection
Experimental: as §1

[7] = target: T4, PSMA Fab; test: clonal phage ELISA on biotinylated PSMA Fab captured on neutravidin plates, anti-M13 HRP detection;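 note: crude clonal phage supernatants tested, before phage were added, wells were pretreated with PSMA antigen in blocking buffer or with blocking buffer only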
T4 construct: Biotinylated and captured on neutravidin coated plates in the phage ELISA; also called Anti-PSMA Fab; 006 PSMA Fab
Experimental: as §1

[8] = target: T4, PSMA Fab; test: clonal phage ELISA on captured PSMA Fab pre-incubated with PSMA antigen as competitor, anti-M13 HRP detection;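 note: crude clonal phage supernatants tested by ELISA, wells first treated with blocking buffer plus PSMA antigen, bound phage read out via HRP-linked anti-M13 antibody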
Experimental: as §1

Binder	phage binding ELISA signal [1]	phage binding ELISA signal in presence of PSMA [2]	Phage binding ELISA signal, Anti-PSMA Fab [5]	Phage binding ELISA signal, Anti-PSMA Fab in presence of PSMA antigen [6]	other results
QALMCVPEWMCLGF [Phage-2895]	2.35	0.1			
VEPSCVPYWMCLGF (cysteine pairing not given here; also: peptide displayed as fusion to phage pIII, also called peptide-180 library clone) [Phage-2906]					Phage binding ELISA signal, Anti-PSMA Fab in presence of PSMA [3]: 0.0835; Phage binding ELISA signal, Anti-PSMA Fab [4]: 2.33
GERWCTPPWMCVGL (also called peptide-180 library clone) [Phage-2913]					Phage binding ELISA signal, Anti-PSMA Fab in presence of PSMA [3]: 0.116; Phage binding ELISA signal, Anti-PSMA Fab [4]: 2.32
VSKVCKPAWMCEGL (tested as crude clonal phage supernatant) [Phage-2888]			2.36	0.104	
GEPVCKPAWMCEGF (also called peptide-180 library clone) [Phage-2909]					Phage binding ELISA signal, Anti-PSMA Fab in presence of PSMA [3]: 0.128; Phage binding ELISA signal, Anti-PSMA Fab [4]: 2.33
HDKLCRPAWMCNGF [Phage-2897]	2.35	0.107			
TLSMCVPTWMCTGF [Phage-2877]					Phage binding ELISA signal, Anti-PSMA Fab [7]: 2.38; Phage binding ELISA signal, Anti-PSMA Fab with PSMA antigen [8]: 0.115
QEVYCKPAWMCDGF (tested as crude clonal phage supernatant) [Phage-2890]			2.36	0.104	
AVPLCMPKWMCTGF (also called peptide-180 library clone) [Phage-2910]					Phage binding ELISA signal, Anti-PSMA Fab in presence of PSMA [3]: 0.0971; Phage binding ELISA signal, Anti-PSMA Fab [4]: 2.33
VTVICKPQWMCVGF (tested as crude clonal phage supernatant) [Phage-2879]			2.38	0.0878	
VLKMCEPLWMCVGF [Phage-2894]	2.35	0.117			
PWLMCKPAWMCTGF [Phage-2900]	2.34	0.183			
MASLCVPSWMCTGF (tested as crude clonal phage supernatant) [Phage-2889]			2.36	0.0629	
VFPACVPNWMCVGF [Phage-2904]	2.33	0.129			
MHLMCKPAWMCAGF (tested as crude clonal phage supernatant) [Phage-2880]			2.38	0.118	
PERMCIPSWMCEVL (tested as crude clonal phage supernatant) [Phage-2882]			2.38	0.1	
GGLLCKPAWMCNWL (also called peptide-180 library clone) [Phage-2915]					Phage binding ELISA signal, Anti-PSMA Fab in presence of PSMA [3]: 0.116; Phage binding ELISA signal, Anti-PSMA Fab [4]: 2.32
AEMRCIPEWMCSGF (also called peptide-180 library clone) [Phage-2907]					Phage binding ELISA signal, Anti-PSMA Fab in presence of PSMA [3]: 0.118; Phage binding ELISA signal, Anti-PSMA Fab [4]: 2.33
QTVMCRPAWMCVGF [Phage-2902]	2.34	0.092			
GLALCKPEWMCIGF (also called peptide-180 library clone) [Phage-2914]					Phage binding ELISA signal, Anti-PSMA Fab in presence of PSMA [3]: 0.0815; Phage binding ELISA signal, Anti-PSMA Fab [4]: 2.32

Binder	phage binding ELISA signal [1]	phage binding ELISA signal in presence of PSMA [2]	Phage binding ELISA signal, Anti-PSMA Fab [5]	Phage binding ELISA signal, Anti-PSMA Fab in presence of PSMA antigen [6]	other results
VTPKCVPMWMCAGF [Phage-2901]	2.34	0.123			
ESARCVPMWMCNGF (tested as crude clonal phage supernatant) [Phage-2878]			2.38	0.0714	
EKPVCVPSWMCTGF (also called peptide-180 library clone) [Phage-2911]					Phage binding ELISA signal, Anti-PSMA Fab in presence of PSMA [3]: 0.098; Phage binding ELISA signal, Anti-PSMA Fab [4]: 2.33
NWPVCKPMWMCTGF [Phage-2898]	2.34	0.155			
SLPLCKPLWMCEGF (tested as crude clonal phage supernatant) [Phage-2887]			2.36	0.0872	
GDPVCKPTWMCLGF (tested as crude clonal phage supernatant) [Phage-2881]			2.38	0.09	
MEIRCTPPWMCMGF [Phage-2899]	2.34	0.0795			
WDAKCVPRWMCDGF (tested as crude clonal phage supernatant) [Phage-2883]			2.37	0.125	
NPPYCVPAWMCAGF (tested as crude clonal phage supernatant) [Phage-2885]			2.37	0.0765	
PSHYCVPAWMCAGF (cysteine pairing not given here; also: peptide displayed as fusion to phage pIII) [Phage-2905]	2.33	0.0875			
ETPFCIPQWMCDGF [Phage-2892]	2.35	0.123			
ALPQCVPAWMCLGF [Phage-2893]	2.35	0.0796			
LGLACIPEWMCVGF (also called peptide-180 library clone) [Phage-2908]					Phage binding ELISA signal, Anti-PSMA Fab in presence of PSMA [3]: 0.0789; Phage binding ELISA signal, Anti-PSMA Fab [4]: 2.33
DGIKCVPRWMCDGF (tested as crude clonal phage supernatant) [Phage-2886]			2.36	0.146	
IERMCRPAWMCDGF [Phage-2896]	2.35	0.188			
VTPACVPTWMCYGF [Phage-2903]	2.34	0.116			
EAHICRPLWMCTGF (tested as crude clonal phage supernatant) [Phage-2891]			2.36	0.0899	
AVHYCQPSWMCTGF (also called peptide-180 library clone) [Phage-2912]					Phage binding ELISA signal, Anti-PSMA Fab in presence of PSMA [3]: 0.0814; Phage binding ELISA signal, Anti-PSMA Fab [4]: 2.33
EFMRCTPPWMCLGF (tested as crude clonal phage supernatant) [Phage-2884]			2.37	0.12	
